From patent EP4674868A1 (Jiangsu Hengrui Pharmaceuticals Co., Ltd., dated 2026)
Where two headings read alike, the source gives them in different places.

Tests used:
[1] = target: T1, human 4-1BB on the surface of HEK293 cells (HEK293-Hu4-1BB) (human, UniProt Q07011 24-255); assay: FACS, HEK293-Hu4-1BB cells
T1 construct: whole, on cells; also called CD137; cell strain highly expressing human 4-1BB

[2] = target: T1, human 4-1BB on the surface of HEK293 …; assay: FACS, HEK293-Hu4-1BB cells; remark: listed apart in the source
[3] = target: T2, h-FAP-His (recombinant human fibroblast activation protein, Leu26-Asp760, His-tagged) (human, UniProt Q12884 26-760); assay: SPR, antibody captured by anti-human IgG (Fc) on CM5 chip, h-FAP-His as analyte
T2 construct: range 26-760; Bought protein with a His tag; also called human FAP-His protein; His-tagged FAP recombinant protein

[4] = target: T1, human 4-1BB on the surface of HEK293 …; assay: cell-based or functional assay
[5] = target: human CD40 on the surface of HEK293 cells (HEK293-HuCD40) (human, UniProt P25942 21-277); assay: cell-based or functional assay

T2 sequence (Q12884 26-760 limits assumed): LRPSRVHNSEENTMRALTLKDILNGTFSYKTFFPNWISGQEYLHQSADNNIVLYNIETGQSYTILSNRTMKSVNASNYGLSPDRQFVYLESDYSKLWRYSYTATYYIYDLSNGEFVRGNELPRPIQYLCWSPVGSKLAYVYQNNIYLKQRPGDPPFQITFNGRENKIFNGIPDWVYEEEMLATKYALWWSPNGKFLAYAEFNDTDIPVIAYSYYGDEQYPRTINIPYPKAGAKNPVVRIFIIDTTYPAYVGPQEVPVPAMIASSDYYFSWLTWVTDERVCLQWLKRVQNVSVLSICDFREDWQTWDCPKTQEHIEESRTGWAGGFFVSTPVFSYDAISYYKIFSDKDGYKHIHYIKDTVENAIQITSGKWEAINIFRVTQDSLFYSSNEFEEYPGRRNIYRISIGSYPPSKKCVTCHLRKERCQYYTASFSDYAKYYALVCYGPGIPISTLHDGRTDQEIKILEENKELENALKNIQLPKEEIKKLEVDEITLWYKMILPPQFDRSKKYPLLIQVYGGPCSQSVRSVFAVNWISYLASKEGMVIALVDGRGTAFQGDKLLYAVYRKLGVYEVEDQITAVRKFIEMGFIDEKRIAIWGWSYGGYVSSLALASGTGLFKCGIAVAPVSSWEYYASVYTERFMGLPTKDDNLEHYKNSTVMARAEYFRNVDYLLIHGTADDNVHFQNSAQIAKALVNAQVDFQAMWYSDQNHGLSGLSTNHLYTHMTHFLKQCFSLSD

B1: C5_V2-YTIQ linked to human IgG1-Fc (Fc fusion)
chain: QVQLVESGGGLVQPGGSLRLSCSASGFTFSSYAMSWVRQAPGKGLEWVSDINSGGQSTFYADSVKGRFTISRDNAKNTLYLQMNSLRAEDTAVYYCAKHPLTYTIATMNDYDYWGQGTQVTVSSEPKSADKTHTCPPCPAPELLGGPSVFLFPPKPKDTLMISRTPEVTCVVVDVEHEDPEVKFNWYVDGVEVHNAKTKPREEQYNSTYRVVSVLTVLHQDWLNGKEYKCKVSSKAFPAPIEKTISKAKGQPREPQVYTLPPSRDELTKNQVSLTCLVKGFYPSDIAVEWESNGQPENNYKTTPPVLDSDGSFFLYSKLTVDKSRWQQGNVFSCSVMHEALHNHYTQKSLSLSPGK
Q: With B1 as the binder, how does the EC50 [1] read?
A: Its EC50 is 0.7 nM.

Q: What about the Maximum fluorescence value [1] of the same binder?
A: Its Maximum fluorescence value is 51700.

B2: humanized anti-4-1BB nanobody C5_V3 linked to human IgG1-Fc (Fc fusion)
chain: QVQLVESGGGLVQPGGSLRLSCSASGFTFSSYAMSWVRQAPGKGLEWVSDINSGGESTFYEDSVKGRFTISRDNAKNTLYLQMNSLKPEDTAVYYCAKHPLTFTIATMNDYDYWGQGTLVTVSSEPKSADKTHTCPPCPAPELLGGPSVFLFPPKPKDTLMISRTPEVTCVVVDVEHEDPEVKFNWYVDGVEVHNAKTKPREEQYNSTYRVVSVLTVLHQDWLNGKEYKCKVSSKAFPAPIEKTISKAKGQPREPQVYTLPPSRDELTKNQVSLTCLVKGFYPSDIAVEWESNGQPENNYKTTPPVLDSDGSFFLYSKLTVDKSRWQQGNVFSCSVMHEALHNHYTQKSLSLSPGK
Q: With B2 as the binder, how does the EC50 [2] read?
A: The EC50 was 1.65 nM.

B3: control anti-FAP antibody 28H1 (antibody, V domains shown)
VH: EVQLLESGGGLVQPGGSLRLSCAASGFTFSSHAMSWVRQAPGKGLEWVSAIWASGEQYYADSVKGRFTISRDNSKNTLYLQMNSLRAEDTAVYYCAKGWLGNFDYWGQGTLVTVSS
VL: EIVLTQSPGTLSLSPGERATLSCRASQSVSRSYLAWYQQKPGQAPRLLIIGASTRATGIPDRFSGSGSGTDFTLTISRLEPEDFAVYYCQQGQVIPPTFGQGTKVEIK
Q: For B3, which Kd [3] is on record?
A: The Kd was 1.31 nM.

Q: And the “Ratio of KD of 28H1 to KD of test antibody” value [3]?
A: Its value is 1.

Q: What about the “Ratio of Kd of 28H1 to Kd of test antibody” value [3] of the same binder?
A: Its value is 1.

Q: What about the koff [3] of the same binder?
A: Its koff is 0.000255 s⁻¹.

Q: And the kon [3]?
A: The kon was 195000 M⁻¹ s⁻¹.

B4: MP0310 (FAP/4-1BB bispecific antibody molecule, control) (other)
chain: GSDLGKKLLEAARAGQDDEVRELLKAGADVNAKDYFSHTPLHLAARNGHLKIVEVLLKAGADVNAKDFAGKTPLHLAAADGHLEIVEVLLKAGADVNAQDIFGKTPADIAADAGHEDIAEVLQKAAGSPTPTPTTPTPTPTTPTPTPTGSDLGKKLLEAARAGQDDEVRELLKAGADVNAKDVLGWTPLHLAAFEGHLEIVEVLLKAGADVNAKDKKGWTPLQLAARTGHLEIVEVLLKAGADVNAKDHIGATPLHLAAWQGHPEIVEVLLKAGADVNAQDKSGKTPADLAADAGHEDIAEVLQKAAGSPTPTPTTPTPTPTTPTPTPTGSDLGQKLLKAAQEGQDDEVRELLKAGADVNAKDLRGITPLHVAAWQGHLEIVEVLLKAGADVNAKDSKGETPLHLAAFRGHLEIVEVLLKAGADVNAQDQQGETPADLAALAGHVDIAEVLQKAAGSPTPTPTTPTPTPTTPTPTPTGSDLGQKLLKAAQEGQDDEVRELLKAGADVNAKDLRGITPLHVAAWQGHLEIVEVLLKAGADVNAKDSKGETPLHLAAFRGHLEIVEVLLKAGADVNAQDQQGETPADLAALAGHVDIAEVLQKAAGSPTPTPTTPTPTPTTPTPTPTGSDLGKKLLEAARAGQDDEVRELLKAGADVNAKDYFSHTPLHLAARNGHLKIVEVLLKAGADVNAKDFAGKTPLHLAAADGHLEIVEVLLKAGADVNAQDIFGKTPADIAADAGHEDIAEVLQKAAHHHHHH
Q: Which “4-1BB/NF-κB luciferase reporter, CD40-crosslinked, Fold change in Emax” value [4] does the source give for B4 here?
A: Its value is 1.11 fold.

Q: And the “4-1BB/NF-κB luciferase reporter, FAP-crosslinked, EC50” value [4]?
A: The value was 0.02 nM.

Q: What about the “4-1BB/NF-κB luciferase reporter, FAP-crosslinked, Fold change in Emax” value [4] of the same binder?
A: The value was 13.8 fold.

Q: What about the “4-1BB/NF-κB luciferase reporter, uncrosslinked, Fold change in Emax” value [4] of the same binder?
A: Its value is 1.01 fold.

Q: And the “CD40/NF-κB reporter (HEK-Blue CD40L), 4-1BB-crosslinked, Fold change in Emax” value [5]?
A: The value was 1.01 fold.

Q: What about the “CD40/NF-κB reporter (HEK-Blue CD40L), FAP-crosslinked, Fold change in Emax” value [5] of the same binder?
A: The value was 0.99 fold.

Q: And the “CD40/NF-κB reporter (HEK-Blue CD40L), uncrosslinked, Fold change in Emax” value [5]?
A: Its value is 1.03 fold.
